The data set is described as follows: total protein half-life in vivo (active degradation + dilution); higher = more stable protein.
Setting [1] is: E. coli NCM3722 delta-clpP delta-lon delta-hslV, growth: N-lim chemostat, doubling time 6 h.
Where [2] appears, read: wild type E. coli NCM3722, growth: C-lim chemostat, doubling time 3 h.
Where [3] appears, read: E. coli NCM3722 delta-hslV, growth: N-lim chemostat, doubling time 6 h.
The mark [4] stands for this setting: E. coli NCM3722 delta-lon, growth: N-lim chemostat, doubling time 6 h.
Where [5] appears, read: E. coli NCM3722 delta-smpB, growth: N-lim chemostat, doubling time 6 h.
The mark [6] stands for this setting: wild type E. coli NCM3722, growth: N-lim chemostat, doubling time 6 h.
Setting [7] is: wild type E. coli NCM3722, growth: N-lim chemostat, doubling time 12 h.
Setting [8] is: E. coli NCM3722 delta-clpP, growth: N-lim chemostat, doubling time 6 h.
Setting [9] is: wild type E. coli NCM3722, growth: C-lim chemostat, doubling time 6 h.
The mark [10] stands for this setting: wild type E. coli NCM3722, growth: C-lim chemostat, doubling time 12 h.
Setting [11] is: wild type E. coli NCM3722, growth: P-lim chemostat, doubling time 6 h.
[12] abbreviates: wild type E. coli NCM3722, growth: P-lim chemostat, doubling time 12 h.

± gives the standard deviation of the averaged measurements.

As for “MYLSKVIIARAWSRDLYQLHQGLWHLFPNRPDAARDFLFHVEKRNTPEGCHVLLQSAQMPVSTAVATVIKTKQVEFQLQVGVPLYFRLRANPIKTILDNQKRLDSKGNIKRCRVPLIKEAEQIAWLQRKLGNAARVEDVHPISERPQYFSGDGKSGKIQTVCFEGVLTINDAPALIDLVQQGIGPAKSMGCGLLSLAPL”, the “total protein half-life in vivo” value is 5.96 ± 0.57 h under setting [1] and 1.61 h under setting [2].

P77704: the “total protein half-life in vivo” value is, setting by setting: under setting [1], 6.54 ± 0.9 h; under setting [3], 1.5 h; under setting [4], 2.26 h; under setting [5], 1.31 h; under setting [6], 1.53 ± 0.3 h; under setting [7], 2.2 h.

Turning to “MDFPQRVNGWALYAHPCFQETYDALVAEVETLKGKDPENYQRKAATKLLAVVHKVIEEHITVNPSSPAFRHGKSLGSGKNKDWSRVKFGAGRYRLFFRYSEKEKVIILGWMNDENTLRTYGKKTDAYTVFSKMLKRGHPPADWETLTRETEETH”, the “total protein half-life in vivo” value is, setting by setting: under setting [8], 6.54 h; under setting [3], 5.12 h; under setting [4], 7.11 ± 0.75 h; under setting [5], 5.58 h; under setting [2], 3.3 h; under setting [9], over 8 h. Besides, the “total protein half-life in vivo” value under setting [10] stood at 10.2 h; the “total protein half-life in vivo” value under setting [6] stood at 6.09 ± 0.47 h; the “total protein half-life in vivo” value under setting [7] was determined as 12.2 h; the “total protein half-life in vivo” value under setting [11] is 5.56 ± 0.21 h; the “total protein half-life in vivo” value under setting [12] is 15.6 h.

With “MARINRISITLCALLFTTLPLTPMAHASKQARESSATTHITKKADKKKSTATTKKTQKTAKKAASKSTTKSKTASSVKKSSITASKNAKTRSKHAVNKTASASFTEKCTKRKGYKSHCVKVKNAASGTLADAHKAKVQKATKVAMNKLMQQIGKPYRWGGSSPRTGFDCSGLVYYAYKDLVKIRIPRTANEMYHLRDAAPIERSELKNGDLVFFRTQGRGTADHVGVYVGNGKFIQSPRTGQEIQITSLSEDYWQRHYVGARRVMTPKTLR”, the “total protein half-life in vivo” value reads like this: under setting [1], over 8 h; under setting [3], 3.67 h; under setting [4], 2.15 h; under setting [2], 2.57 ± 0.19 h; under setting [9], 5.435 ± 0.027 h; under setting [10], 9.36 ± 4.5 h. The “total protein half-life in vivo” value runs as follows: under setting [6], 2.63 ± 0.55 h; under setting [7], 6.47 ± 1.8 h; under setting [11], 3.69 ± 0.066 h; under setting [12], 6.68 ± 0.86 h.

Consider “MYIGIDLGTSGVKVILLNEQGEVVAAQTEKLTVSRPHPLWSEQDPEQWWQATDRAMKALGDQHSLQDVKALGIAGQMHGATLLDAQQRVLRPAILWNDGRCAQECTLLEARVPQSRVITGNLMMPGFTAPKLLWVQRHEPEIFRQIDKVLLPKDYLRLRMTGEFASDMSDAAGTMWLDVAKRDWSDVMLQACDLSRDQMPALYEGSEITGALLPEVAKAWGMATVPVVAGGGDNAAGAVGVGMVDANQAMLSLGTSGVYFAVSEGFLSKPESAVHSFCHALPQRWHLMSVMLSAASCLDWAAKLTGLSNVPALIAAAQQADESAEPVWFLPYLSGERTPHNNPQAKGVFFGLTHQHGPNELARAVLEGVGYALADGMDVVHACGIKPQSVTLIGGGARSEYWRQMLADISGQQLDYRTGGDVGPALGAARLAQIAANPEKSLIELLPQLPLEQSHLPDAQRYAAYQPRRETFRRLYQQLLPLMA”, for which the “total protein half-life in vivo” value by setting is: under setting [1], 5.25 ± 0.23 h; under setting [8], 4.96 ± 0.27 h; under setting [3], 5.75 ± 1.6 h; under setting [4], 4.82 ± 0.32 h; under setting [5], 4.5 ± 0.047 h; under setting [2], 3.52 ± 0.21 h. Also, the “total protein half-life in vivo” value under setting [9] worked out at 5.87 ± 0.13 h; the “total protein half-life in vivo” value under setting [10] amounted to 9.67 ± 1.8 h; the “total protein half-life in vivo” value under setting [6] was determined as 4.57 ± 0.12 h; the “total protein half-life in vivo” value under setting [7] worked out at 8 ± 1.8 h; the “total protein half-life in vivo” value under setting [11] came to 6.62 ± 0.53 h; the “total protein half-life in vivo” value under setting [12] is 12.5 ± 0.58 h.

In the case of “MTHLELVPVPPVAQLAGVSQHYGKTVALNNITLDIPARCMVGLIGPDGVGKSSLLSLISGARVIEQGNVMVLGGDMRDPKHRRDVCPRIAWMPQGLGKNLYHTLSVYENVDFFARLFGHDKAEREVRINELLTSTGLAPFRDRPAGKLSGGMKQKLGLCCALIHDPELLILDEPTTGVDPLSRSQFWDLIDSIRQRQSNMSVLVATAYMEEAERFDWLVAMNAGEVLATGSAEELRQQTQSATLEEAFINLLPQAQRQAHQAVVIPPYQPENAEIAIEARDLTMRFGSFVAVDHVNFRIPRGEIFGFLGSNGCGKSTTMKMLTGLLPASEGEAWLFGQPVDPKDIDTRRRVGYMSQAFSLYNELTVRQNLELHARLFHIPEAEIPARVAEMSERFKLNDVEDILPESLPLGIRQRLSLAVAVIHRPEMLILDEPTSGVDPVARDMFWQLMVDLSRQDKVTIFISTHFMNEAERCDRISLMHAGKVLASGTPQELVEKRGAASLEEAFIAYLQEAAGQSNEAEAPPVVHDTTHAPRQGFSLRRLFSYSRREALELRRDPVRSTLALMGTVILMLIMGYGISMDVENLRFAVLDRDQTVSSQAWTLNLSGSRYFIEQPPLTSYDELDRRMRAGDITVAIEIPPNFGRDIARGTPVELGVWIDGAMPSRAETVKGYVQAMHQSWLQDVASRQSTPASQSGLMNIETRYRYNPDVKSLPAIVPAVIPLLLMMIPSMLSALSVVREKELGSIINLYVTPTTRSEFLLGKQLPYIALGMLNFFLLCGLSVFVFGVPHKGSFLTLTLAALLYIIIATGMGLLISTFMKSQIAAIFGTAIITLIPATQFSGMIDPVASLEGPGRWIGEVYPTSHFLTIARGTFSKALDLTDLWQLFIPLLIAIPLVMGLSILLLKKQEG”, the “total protein half-life in vivo” value under setting [1] was determined as 6.26 ± 0.63 h; the “total protein half-life in vivo” value under setting [8] is 5.83 ± 0.27 h; the “total protein half-life in vivo” value under setting [3] turned out to be 5.89 ± 0.12 h; the “total protein half-life in vivo” value under setting [4] stood at 6.1709 ± 0.0027 h; the “total protein half-life in vivo” value under setting [5] stood at 5.63 ± 0.1 h; the “total protein half-life in vivo” value under setting [2] came to 3.42 ± 0.3 h. Further, the “total protein half-life in vivo” value was determined as 5.34 h under setting [9]; 13.5 ± 0.33 h under setting [10]; 5.19 ± 0.17 h under setting [6]; 11.8 ± 0.13 h under setting [7]; 6.42 ± 0.41 h under setting [11]; 13 ± 1.4 h under setting [12].

In the case of “MVDKRESYTKEDLLASGRGELFGAKGPQLPAPNMLMMDRVVKMTETGGNFDKGYVEAELDINPDLWFFGCHFIGDPVMPGCLGLDAMWQLVGFYLGWLGGEGKGRALGVGEVKFTGQVLPTAKKVTYRIHFKRIVNRRLIMGLADGEVLVDGRLIYTASDLKVGLFQDTSAF [P0A6Q3]”, the “total protein half-life in vivo” value was determined as 4.896 ± 0.032 h under setting [1]; 4.99 ± 0.2 h under setting [8]; 5.5 ± 0.67 h under setting [3]; 5.48 ± 0.64 h under setting [4]; 5.18 ± 0.13 h under setting [5]; 3.03 ± 0.035 h under setting [2]. Further, the “total protein half-life in vivo” value under setting [9] worked out at 5.626 ± 0.038 h; the “total protein half-life in vivo” value under setting [10] turned out to be 11.5 ± 1.6 h; the “total protein half-life in vivo” value under setting [6] turned out to be 5.0372 ± 0.0034 h; the “total protein half-life in vivo” value under setting [7] stood at 10.1 ± 0.12 h; the “total protein half-life in vivo” value under setting [11] amounted to 5.56 ± 0.57 h; the “total protein half-life in vivo” value under setting [12] was 12.2 ± 0.94 h.

Regarding “MLRIAKEALTFDDVLLVPAHSTVLPNTADLSTQLTKTIRLNIPMLSAAMDTVTEARLAIALAQEGGIGFIHKNMSIERQAEEVRRVKKHESGVVTDPQTVLPTTTLREVKELTERNGFAGYPVVTEENELVGIITGRDVRFVTDLNQPVSVYMTPKERLVTVREGEAREVVLAKMHEKRVEKALVVDDEFHLIGMITVKDFQKAERKPNACKDEQGRLRVGAAVGAGAGNEERVDALVAAGVDVLLIDSSHGHSEGVLQRIRETRAKYPDLQIIGGNVATAAGARALAEAGCSAVKVGIGPGSICTTRIVTGVGVPQITAVADAVEALEGTGIPVIADGGIRFSGDIAKAIAAGASAVMVGSMLAGTEESPGEIELYQGRSYKSYRGMGSLGAMSKGSSDRYFQSDNAADKLVPEGIEGRVAYKGRLKEIIHQQMGGLRSCMGLTGCGTIDELRTKAEFVRISGAGIQESHVHDVTITKESPNYRLGS [P0ADG7]”, the “total protein half-life in vivo” value is 5.001 ± 0.0064 h under setting [1]; 3.78 ± 0.047 h under setting [8]; 4.06 ± 0.047 h under setting [3]; 4.91 ± 0.38 h under setting [4]; 3.95 ± 0.36 h under setting [5]; 3.01 ± 0.44 h under setting [2]. Moreover, the “total protein half-life in vivo” value worked out at 5.76 ± 0.073 h under setting [9]; 11.2 ± 1.9 h under setting [10]; 4.29 ± 0.39 h under setting [6]; 6.68 ± 0.18 h under setting [7]; 6.02 ± 0.29 h under setting [11]; 12.5 ± 0.63 h under setting [12].

Take “MQDRNFDDIAEKFSRNIYGTTKGQLRQAILWQDLDRVLAEMGPQKLRVLDAGGGEGQTAIKMAERGHQVILCDLSAQMIDRAKQAAEAKGVSDNMQFIHCAAQDVASHLETPVDLILFHAVLEWVADPRSVLQTLWSVLRPGGVLSLMFYNAHGLLMHNMVAGNFDYVQAGMPKKKKRTLSPDYPRDPAQVYLWLEEAGWQIMGKTGVRVFHDYLREKHQQRDCYEALLELETRYCRQEPYITLGRYIHVTARKPQSKDKV”: the “total protein half-life in vivo” value is, setting by setting: under setting [1], 4.99 ± 0.24 h; under setting [8], 4.498 ± 0.018 h; under setting [3], 3.95 ± 0.13 h; under setting [4], 4.57 ± 0.49 h; under setting [5], 4.304 ± 0.012 h; under setting [2], 2.96 ± 0.23 h. In addition, the “total protein half-life in vivo” value turned out to be 5.46 ± 0.57 h under setting [9]; 10.2 ± 0.95 h under setting [10]; 4.21 ± 0.36 h under setting [6]; 7.11 ± 0.55 h under setting [7]; 5.32 ± 0.21 h under setting [11]; 11 ± 0.42 h under setting [12].

With “MTEQQISRTQAWLESLRPKTLPLAFAAIIVGTALAWWQGHFDPLVALLALITAGLLQILSNLANDYGDAVKGSDKPDRIGPLRGMQKGVITQQEMKRALIITVVLICLSGLALVAVACHTLADFVGFLILGGLSIIAAITYTVGNRPYGYIGLGDISVLVFFGWLSVMGSWYLQAHTLIPALILPATACGLLATAVLNINNLRDINSDRENGKNTLVVRLGEVNARRYHACLLMGSLVCLALFNLFSLHSLWGWLFLLAAPLLVKQARYVMREMDPVAMRPMLERTVKGALLTNLLFVLGIFLSQWAA”, the “total protein half-life in vivo” value under setting [8] is 5.652 ± 0.0067 h, the “total protein half-life in vivo” value under setting [3] stood at 6.01 h, the “total protein half-life in vivo” value under setting [9] came to 6.18 h and the “total protein half-life in vivo” value under setting [10] turned out to be 12.6 h.

In the case of “MSRFIPIELHHASRLLNHGPTVLITSFDEQSQRRNIMAAAWSMPVEFEPPRVAIVVDKSTWTRELIEHNGKFGIVIPGVAATNWTWAVGSVSGRDEDKFNCYGIPVVRGPVFGLPLVEEKCLAWMECRLLPATSAQEEYDTLFGEVVSAAADARVFVEGRWQFDDDKLNTLHHLGAGTFVTSGKRVTAG”, the “total protein half-life in vivo” value is, setting by setting: under setting [1], 5.07 ± 0.36 h; under setting [8], 4.49 ± 0.06 h; under setting [3], 4.12 ± 0.3 h; under setting [4], 4.25 ± 0.39 h; under setting [5], 4.19 ± 0.066 h; under setting [2], 2.96 ± 0.065 h. Besides, the “total protein half-life in vivo” value is, setting by setting: under setting [9], 4.15 ± 0.89 h; under setting [10], 9.97 ± 0.71 h; under setting [6], 4.27 ± 0.46 h; under setting [7], 6.92 ± 0.15 h; under setting [11], 5.45 ± 0.67 h; under setting [12], 10.4 ± 0.57 h.

For the origin of these results see the supplement of paper PMC11246515.
